Test results published in the supplement of paper PMC6755084.

B1: F1*; the commonest letter at each place (parent)
chain: GAGACCGCAACTGAAAAGTTGTTATCACTTGTCGTAAGACACTTTGGATGGGTTGAAGTTCTGCACGTAGAAGCAAAAGGC

Variants of: B1
Assay: fraction ligated after 30 min (ligated reads / total reads); higher = more ligase activity
Details: with F1*sub RNA substrate (template-directed ligation), 42 °C
Method: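 Chip-synthesised pool of F1* ligase ribozyme variants (all single and double substitutions, single, double and triple deletions in the catalytic core and GAA bulge, plus designed variants) was transcribed with T7 and reacted as a pool with excess substrate F1*sub for 30 min at 42 C in 50 mM EPPS pH 8.5, 25 mM MgCl2. Ligated and unligated bands were separated by PAGE, barcoded by RT and deep sequenced; fraction ligated = ligated reads / total reads per variant, relative activity = FL / FL of wild type (0.826). Sequences are the DNA template of the ribozyme.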

Variant	fraction ligated
T23C C42A	0.762
T23C C42T	0.804
T23C C42G	0.761
T23A T32C	0.771
T23A T32A	0.859
T23A T32G	0.829
T23G A41T	0.792
T23G A41C	0.727
T23G A41G	0.746
T23C A48C	0.697
T23C A48T	0.0663
T23C A48G	0.696
T23G A27G	0.788
T23G A27C	0.785
T23G A27T	0.801
T23C A39T	0.803
T23C A39C	0.788
T23C A39G	0.831
T23A T29C	0.797
T23A T29A	0.826
T23A T29G	0.82
A24C A41T	0.614
A24C A41C	0.00606
A24C A41G	0.608

Variant	fraction ligated
T23A C40G	0.838
T23A C40A	0.815
T23A C40T	0.833
T23A G38A	0.809
T23A G38T	0.795
T23A G38C	0.799
T23A A24G	0.764
T23A A24C	0.782
T23A A24T	0.781
A24C A36G	0.0223
A24C A36T	0.767
A24C A36C	0.763
T23A C26A	0.318
T23A C26T	0.794
T23A C26G	0.116
T23C G38A	0.815
T23C G38T	0.803
T23C G38C	0.802
T23C A24T	0.501
T23C A24G	0.794
T23C A24C	0.73
T23C G50A	0.632
T23C G50T	0.782
T23C G50C	0.258

Variant	fraction ligated
T23A A39T	0.794
T23A A39G	0.819
T23A A39C	0.789
T23A A27T	0.794
T23A A27G	0.794
T23A A27C	0.82
T23G T49C	0.748
T23G T49G	0.761
T23G T49A	0.766
T23G G46T	0.759
T23G G46C	0.803
T23G G46A	0.809
T23A A37G	0.84
T23A A37T	0.811
T23A A37C	0.82
T23A	0.837
T23C	0.846
T23G	0.855
T22C	0.819
T23A A48G	0.596
T23A A48T	0.68
T23A A48C	0.727
T23C A57C	0.81
T23C A57T	0.794

Variant	fraction ligated
T23C A57G	0.851
T23C A41C	0.783
T23C A41T	0.808
T23C A41G	0.784
T23G T44G	0.86
T23G T44A	0.842
T23G T44C	0.802
T23G C40A	0.873
T23G C40G	0.812
T23G C40T	0.864
T23C C40A	0.792
T23C C40G	0.766
T23C C40T	0.811
T23A G50A	0.477
T23A G50T	0.699
T23A G50C	0.255
T23G T35A	0.834
T23G T35C	0.827
T23G T35G	0.86
T23G T43G	0.821
T23G T43A	0.811
T23G T43C	0.747
T23G G31C	0.849
T23G G31A	0.849

Variant	fraction ligated
T23G G31T	0.868
T23C A27C	0.775
T23C A27G	0.781
T23C A27T	0.804
T23A T45C	0.222
T23A T45A	0.373
T23A T45G	0.0214
T23C G47A	0.806
T23C G47C	0.0373
T23C G47T	0.0952
A24C A27C	0.557
A24C A27G	0.692
A24C A27T	0.668
A24C A57T	0.55
A24C A57C	0.368
A24C A57G	0.633
A24C	0.747
T23C T44A	0.817
T23C T44C	0.8
T23C T44G	0.779
T23C T29G	0.766
T23C T29A	0.82
T23C T29C	0.779
T23A G55A	0.801

Variant	fraction ligated
T23A G55C	0.292
T23A G55T	0.783
A24C A48C	0.186
A24C A48T	0.0426
A24C A48G	0.614
T23G A39C	0.776
T23G A39G	0.867
T23G A39T	0.79
A24C A39T	0.197
A24C A39C	0.131
A24C A39G	0.774
T23C C33T	0.839
T23C C33G	0.819
T23C C33A	0.786
T23G G34C	0.799
T23G G34A	0.802
T23G G34T	0.794
A24C C26G	0.419
A24C C26A	0.417
A24C C26T	0.0218
T23A C33G	0.838
T23A C33A	0.855
T23A C33T	0.848
T23G T32C	0.75

Variant	fraction ligated
T23G T32A	0.858
T23G T32G	0.842
T23G A37G	0.867
T23G A37C	0.819
T23G A37T	0.821
T23G A48C	0.74
T23G A48T	0.781
T23G A48G	0.788
T23C A56G	0.698
T23C A56T	0.802
T23C A56C	0.518
T23G A36C	0.882
T23G A36T	0.841
T23G A36G	0.885
A24C A56T	0.0488
A24C A56G	0.0302
A24C A56C	0.0226
T23A T43C	0.783
T23A T43A	0.803
T23A T43G	0.81
T23C A37T	0.796
T23C A37G	0.837
T23C A37C	0.821
